Drawing on publication PMC2266617, this text covers stoichiometry N for 1 substance.

The target of the assay is Kv4.2-T1 domain (tetramerization domain of Kv4.2) with a poly-His tag at the NH2 terminus. Kind of assay: SEC.

Sequence of Kv4.2-T1 domain (tetramerization domain of Kv4.2) with a poly-His tag at the NH2 terminus (Q63881 whole entry, the tested form may be a part): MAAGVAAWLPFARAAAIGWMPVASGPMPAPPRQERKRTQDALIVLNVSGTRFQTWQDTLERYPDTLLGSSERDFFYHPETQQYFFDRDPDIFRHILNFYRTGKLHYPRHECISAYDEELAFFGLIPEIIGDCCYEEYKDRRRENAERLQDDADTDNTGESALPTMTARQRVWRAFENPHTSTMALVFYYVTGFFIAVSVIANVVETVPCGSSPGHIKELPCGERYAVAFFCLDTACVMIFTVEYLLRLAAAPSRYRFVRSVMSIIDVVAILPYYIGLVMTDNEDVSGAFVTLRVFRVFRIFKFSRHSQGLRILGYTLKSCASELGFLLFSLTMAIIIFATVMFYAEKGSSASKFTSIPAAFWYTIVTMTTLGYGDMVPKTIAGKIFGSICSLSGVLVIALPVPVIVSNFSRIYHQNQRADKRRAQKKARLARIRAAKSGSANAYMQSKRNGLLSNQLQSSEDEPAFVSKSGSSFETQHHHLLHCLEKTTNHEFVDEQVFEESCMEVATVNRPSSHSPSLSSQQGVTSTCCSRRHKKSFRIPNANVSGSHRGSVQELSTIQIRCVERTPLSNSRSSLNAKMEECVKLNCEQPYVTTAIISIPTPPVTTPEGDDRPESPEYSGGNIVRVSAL

In turn, “Kv4.2-T1 domain (tetramerization domain of Kv4.2) with a poly-His tag at the NH2 terminus (domain or fragment)” had a stoichiometry N of 4.
